In the nanobody polyreactivity screen of Harvey et al. (2022):

assay: yeast display, Sf9 membrane polyspecificity reagent, FACS + sequencing; frameworks hold sequencing errors
How it was run: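 Galactose induction of a Saccharomyces cerevisiae BJ5465 synthetic nanobody display library ran 36–48 hours. The cells were then stained for 1 hour at 4 °C with 10% biotinylated, detergent-solubilized Sf9 membrane reagent, pulled down on streptavidin microbeads and FACS-sorted into low and high (top ~1%) gates on expression and reagent-binding fluorescence. Labels for polyreactivity follow the gate of origin.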

Row | Sequence | polyreactivity (PSR sort gate)
1 | QDQLVESGGGLVQAGGSLRLSCAASGSIFEINAMGWYRQSPGKERELVAAITGSGGSTHYADSVKGRFTISRDNAKNTVYLQMNSLKPEDTAVYYCAAVPRYQYGYWGQGTQVTVSS | low polyreactivity
2 | QVQLVESGGGLVQAGGSLRLSCAASGTIFVNNAMGWYRQAPGKERELVAAIRRSGGNTYYADSVKGRFTISRDNAKNTVYLQMNSLKPEDTAVYYCNVVRRADSIRAKSRDYWGQGTQVTVSS | high polyreactivity
3 | QVQLVESGGGLVQAGGSLRLSCAASGNIFSWNTMGWYRQAPGKERELVAAITYRGTRTFYADSVKRRFTISRDNAKNTVYLQMNSLKPEDTEVYYCAATRYAPYRRYYYWGQGTQVTVSS | high polyreactivity
4 | QVQLVESGRGLVQAGGSLRLSCAASGSIFRYNAMGWYRQAPGKERELVAAITRRGTSTYYADSVKGRFTISRDNAKNTVYLQKNSLKPEDTAVYYCAARYLYGVPVGGHGYWGQGTQVSVSS | high polyreactivity
5 | QVQLVESVVGLVQAGGSLRLSCAASGRIFIIYAMGWYIQAPGKEREFVAAITSSGGSTYYGDSVKGRFTISRDNAKNTVYLQMNSLKPEDSAVYYCAARVTKLRTSSLRGYWGQGTQVTVSS | high polyreactivity
6 | QVQLVESRGGLVQAGGSLRLSCAPSGLIFWAYARGWYRQAPGNERELVAAINWRGGSTYYADSVKGRFTISRDNAKNTVYLQMNSLKPEDTAVYYCAADSYYDEYDYWGQGTQVTVSS | low polyreactivity
7 | QVQLVESVGGLVQAGGSLRLSCAASGSTFRYYAMGWYRQAPGKERELVAAITGSGGSTYYADSVKGRFTISRDNAKNTVYLQMNSLKPEDTAVYYCAAYCSRSILRYDSWGQGTQVTVSS | high polyreactivity
8 | QYQLGESGGGLVQAGGSLRLSCAASGRIFTWNAMGWYRQAPGKERELVAAIRRGGGTYADSVKGRYTISRDNGKNTFYLQMHSLKPEDTAVYYCAATSGYYAMNYWGQGTQVTVSS | high polyreactivity
9 | QVQLVESGGGLVQAGGSLRLSCAASGSIFVGYAMGWYRQAPGKERELVAAISRSGGTTYYADSVKGRFTISRDTAKNTVYLQMNSLKPEDTAVYYCAAERWAYYRSGLWWPYDYWGQGTQVTVSS | high polyreactivity
10 | QVQLVESGGGLVQAGGSLRLSCAASGRIFDVNDMGCYRQAPGKERELVAAITYSGTDTYYADSVKGRITISRDNAKNTVYLQMNSLKPEDTAVYYCAAEFTGWEYIGRDYWGQGTQVTVSS | low polyreactivity
11 | QVQLVESGGGLVQAGGSLRLSCAASGSTFRINTMGWYRQAPGKERELVATITGSGGSTYYADSVKGRFTISRDNAKNTVYLQMNSLKPEDTAVYYCAAVGDQNEYDYWGQGTQVTVSS | low polyreactivity
12 | QVQLVESGGGLVHAGGSLRLSCAASGSTFFLYAMGWYRQAHGKERELVAAISSDGSTYYADSVKGRFTISRDNAKHTVYLQMNSLKPEDTAVYYCAAEYTPSYYEYYYWGQGTQVTVSS | low polyreactivity
13 | QVQLVESGGGLVQAGGSLRLSCAASGIIFSVNAMGWYRQAPGTERELVAAISSSGGDTYYADSVKGRFTISRDNAKNTVYLQMNSLKPEDTAVYYCAASVEQPGLAYDYWGQGTQVTVSS | low polyreactivity
14 | QVQLVESGGGLVQAGGSLRLSCAASGITIYHNAMGWYRPAPGKERELVAAISWSGGSTYYADSVKGRFTISRDNANNTVYLQMNSLKPEDSAVYYCAAYQRVREGHDYEYWGQGTQVSVSS | high polyreactivity
15 | QDQLVESGGGLVQAGASLRLSCAASGFIFSYYAMGWYRQAPGKERELVAAITWSGSSTYYADSVKGRFTISRDNAKNTVYLQMNSLKPEDTAVYYCPASSGGFRHYYYTYNYWGQGTQVTVSS | high polyreactivity
16 | QVQLVESGGGLVQAGGSLRLSCAASGRTFRWNVMGWYRQAPGKERELVAAISSDGSTYYADSVKGRFTISGDNAKNTVYLQMNSLKPEDTAVYYCAAVVSYYFRYGGSAYKYGYWGQGTQVTVSS | high polyreactivity
17 | QVQLVESGGGLVQAGGSLRLSCAASGFIFRYYAMGWYRQAPGKERELVAAITSGGASTYYADSVKGRFTISRDNAKNTVYLQMNSLKPEDTAVYYCAADTSSYSEYDYWGQGTQVTVSS | low polyreactivity
18 | QVQLVESGGGLVQAGGSLRLSCAASGSIFLYNAMGWYRPAPRKERELVAAISKSGGSTYYADSVKGRFTISRDNAKNTVYLQMNSLKPEDSAVYYCAAGYGRRIRYGSDYDYWGQGTQVTVSS | low polyreactivity
19 | QVQVVESGGGLVQAGGSLRISCAASGSIFPGYDMGWYRQAPGKERELVAAIRTSGGSTNYADSVKGRFTISRDNAKNTVYLQMNSLKPEDTAVYYCAARTNSPRGTKRYYWGQGTQVTVSS | high polyreactivity
20 | QVQLVESVGGLVQAGGSLRLSCAASGRTFGRYAMGWDRQAPGKERELVAAISWSGATTYYADSVKGRFTISRDNAKNTVYLQMNSLKPEDTAVYYCAARFRRGITYEYWGQGTQVTVSS | high polyreactivity
21 | QVQLVESGGGLVQAGGSLRLSCAASGRIFVDNAMGWYRQAPGKERELVAAITRGGSTYADSVKGRFTISRDNAQNTVYLQMISLKPEDTAVYYCAADLWSVPFTVYTFGIFYYWGQGTQVTVSS | low polyreactivity
22 | QVQLVESGGGLDQAGGSLRLSCAASGSIFPFYAMGWYRQAPGKERELVAAISSRGGSTYYADSVKGRFTISRDNAKNTVYLQMNSLKPEDTAVYYCAARDYSIKVRLGYWGQGTHVTVSS | low polyreactivity

Row | Sequence | polyreactivity (PSR sort gate)
23 | QVQLVDSGGGLVQAGGSLRLSCAASGITFSWYAMGWYRQAPGKERELVAAITRNGGSTYYADSVKGRFTISRDNAKNTVYLLMNSLKPEDTAVYYCNARKKYENYYWGQGTQVTVSS | high polyreactivity
24 | QVQLVESGGGLVQAGGSLRLSCAASGTTFWRYTMGWYRQAPGKERELVAAISTRGGSTTYADSVKGRFTISRDKAKNNVYLQMNSLKPEDTAVYYCNADGYRGYYGRNKSKYDYWGQGTQVTVSS | high polyreactivity
25 | QVQLVESGGGLVQAGGSLRLSCAASGYTFSRNAMGWYRPAPGKERELVAAITGSGGSTYYADSVKGRFTISRDNAKNTVYLQMNSLKPEDTAVYYCASKYYGRSFYYGYDYWGQGTQVTVSS | low polyreactivity
26 | QVQLVESGGGLVQAGGSLRLSCAASGITFHGYAMGWDRQAPGKERELVAAISDSGSSTYYADSVKGRFTISRDNAKNTVYLQMNSLKPEHTAVYYCAAVSGFYDQYDYWGQGTQVTVSS | low polyreactivity
27 | QVKLVESGGGLVQAGGSLRLSFAASAGTFNSYAKGWYRQEPGKERELVATISYSGGSTYYADSVKGRFTISRDNAKYTVYLQMNSLKPEDTAVYYCAKVRYYPYSPGGLDYWGQGTQVTVSS | low polyreactivity
28 | QVQLVESGGGLVQAGGSLRLSCAASGSIYYSYAMGWYRQAPGKERELVARITKRGGRTYYADSVKGRFTISRDNAKNTVYLQMNSLKPEDTAVYYCAATTGHRTYRYYYWGQGTQVTVSS | high polyreactivity
29 | QVQLVESGGGLVQAGGSLRLSCADSGRTFKFNAMGWYRQAPGKERELVVGITWTGSTTSYADSVKGRFTISRDNAKNTVYLQMNSLKPEDTAVYYCAADKIRFWYHGFYYRGQGTQVTVSS | low polyreactivity
30 | QVQLVESGGGLVQAGGSLRLSCAAFGPIFQYYAMGSYRQAPGKERELVAAITRSGGSTYYADSVKGRFTISRDNAKNTVYLQMNSLKPEDTAVYYCAAYSRYTVREGYDYWGQGTQVTVSS | high polyreactivity
31 | QVQLVESGVRLVQAGGSLRLSCAASGFNFRRYAMGWYRPAPGKERELVAAISWRSGSTYYADSVKGRFTISRDNAKNTVYLQMNSLKPEDTAVYYCAAKDQATYQLNYWGQGTQVTVSS | high polyreactivity
32 | QVQLVESGGGLVQAGGSLRLSCAASGRTFRYYAMGWYRQAPGKERELVAAITSGGSTYYADSVKGRFTISRDNAKNTVYLQMNSLKPEDTAVYYDYWGQGTQVTVSS | low polyreactivity
33 | QVQLVESGGGLVQAGGSLRLICAASGFTFWNYAMGWYRQAPGKERELVAAITWSGGITYYADSVKGRFTISRDNAKNTVYLQMNSLKPEDTAVYYCAAYPQYQPEWYYIEYDYWGQGTQVTVSS | low polyreactivity
34 | QVQLVESGGGLVQAGGSLRLSCAASGYIFGSYTMGWYRQAPGKERELVAGISRRGGGTYYADSVKGRFTMSRDNAKNNVYLQMNSLIPEDTAVYYCAAEVITIGLYRYGFWGQGTQVSVSS | high polyreactivity
35 | QVQLVESGGALVQAGGSLRLSCAASGSTFPTNAMGWYRQAPGKERELVAAITSSTGSTYYADSVKGRFTISRDNAKNTVYLQMNSLKPEDTAVYSCAKSKQWQRYLRGNYWGQGTQVTVSS | low polyreactivity
36 | QVQLVESGGGLVQAGGSLRLSCAASGSIFDHNAMGWYRQAPGKEREFFARITSSGGGTYYADSVKGRFTISRDNAKNTVYLQMNSLKPEDTAVYYCAKTYYRQGARYPTMFYYWGQGTQVTVSS | low polyreactivity
37 | QDQLVESGGGLVQARGPLRLSCSASGFNFSNYAMGWYRHAPGKERELVAAISFTGSNTYYADSVKGRFTISRDNAKNTVYLQMNSLKPEDTAVYYWNDPLVWGVYAAQNWDEGYWGQGTQVTVSS | low polyreactivity
38 | QVQHVESGGGLVQAGGSLRLSCAASGRIFYCYAMGWYRQAPGKERELVAAISWSGGSTYYADSVKGRFTISRDNAKNTVYLQMNSLKPEDTAVYYCARRYRGGYKYDYWGQGTQVTVSS | high polyreactivity
39 | QVQLVESGGGVVQAGGSLRLSCAASGRTFNYYAMGWYRQAPGKERELVAAISRTATTYYADSVKGRFTISRDNAKNTVYLQMNSLKPEDTAVYYCAARSYSSSFSYRHYYWGQGTQVTVSS | high polyreactivity
40 | QVQLVESGGGLVQAGGSLRLSCAASGFTFRQYAMGWYRQAPGKERELVAAISRSGSRTYYADSVKGRFTISRDNAKNTVYLQMNSLKPEDTAVYYCNAVFSTFTGEYYWGQGSQVTVSS | high polyreactivity
41 | QVQLVESGGGLVQAGGSLRLSCDASGSIFPHNAMGWYRQAPGKERELVAAISVSGGSKYYADSVKGRFTISRDNAKNTVYLQMNSLKPEDTAVYYCAAYAYGGRINGYRTYRYNYWGQGTQVTVSS | high polyreactivity
42 | QVQLVESGGGLVQAGGSLRLSCAASGSIFYKYMGWNRQAPGKERELVAAISWSGGRTYYADSVKGRFTISRDNAKNTVYLQMNSLKPEDTAVYYCNRVVLWRIGDKAFEYWGQGTQVTVSS | high polyreactivity
43 | QVQLVESGGGLVQAGGSLRLICAASGRTFADYAMGWYRQAPGKERELVAAISWRGGSTYYADSVKGRFTISRDNAKITVYLQMNSLKPEDTAVYYSNKAYPAHYDYLGQGTQVTVSS | low polyreactivity
